Reference: patent US20230331828A1

Biological target: soluble Aβ (Aβ42) aggregates (human)
Test: cell-based or functional assay

Sequence of soluble Aβ (Aβ42) aggregates (human) (peptide, as listed by the source): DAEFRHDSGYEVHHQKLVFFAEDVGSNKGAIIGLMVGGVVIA

human IgG isotype control antibody
Mean (Aβ spots per neuron); Isotype Control 1:50 (Aβ spots per neuron): 58.7
